# Data taken from paper PMC9482650, “Quantitative fragmentomics allow affinity mapping of interactomes” (Nature Communications, 2022).
# T1: APBA1_1, Q02410
# T1 sequence (Q02410 651-752, limits assumed, looked up): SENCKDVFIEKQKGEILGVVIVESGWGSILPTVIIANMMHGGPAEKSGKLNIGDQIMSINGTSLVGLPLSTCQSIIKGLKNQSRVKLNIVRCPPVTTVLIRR
# T2: APBA1_2, Q02410
# T2 sequence (Q02410 742-832, limits assumed, looked up): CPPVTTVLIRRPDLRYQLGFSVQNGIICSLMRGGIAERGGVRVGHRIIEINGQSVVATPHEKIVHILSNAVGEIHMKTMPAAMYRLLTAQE
# T3: APBA2_1, Q99767
# T3 sequence (Q99767 563-664, limits assumed, looked up): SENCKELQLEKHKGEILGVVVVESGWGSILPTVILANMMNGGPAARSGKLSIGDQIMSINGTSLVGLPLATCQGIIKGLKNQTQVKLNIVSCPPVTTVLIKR
# T4: DLG3_2, Q92796
# T4 sequence (Q92796 221-321, limits assumed, looked up): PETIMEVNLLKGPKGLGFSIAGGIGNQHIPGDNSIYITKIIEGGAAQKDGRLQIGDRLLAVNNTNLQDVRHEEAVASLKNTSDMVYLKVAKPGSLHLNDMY
# T5: GRIP1_3, Q9Y3R0
# T5 sequence (Q9Y3R0 247-346, limits assumed, looked up): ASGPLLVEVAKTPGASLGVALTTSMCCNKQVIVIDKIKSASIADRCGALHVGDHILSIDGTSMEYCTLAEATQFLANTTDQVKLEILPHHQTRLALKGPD
# T6: GRIP1_5, Q9Y3R0
# T6 sequence (Q9Y3R0 568-668, limits assumed, looked up): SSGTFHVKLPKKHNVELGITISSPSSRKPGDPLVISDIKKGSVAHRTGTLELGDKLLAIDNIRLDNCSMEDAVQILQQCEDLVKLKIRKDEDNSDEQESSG
# T7: LNX2_2, Q8N448
# T7 sequence (Q8N448 334-432, limits assumed, looked up): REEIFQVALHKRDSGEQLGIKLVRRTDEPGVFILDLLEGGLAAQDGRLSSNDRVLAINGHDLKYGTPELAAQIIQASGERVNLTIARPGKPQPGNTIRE
# T8: MPP2, Q14168
# T8 sequence (Q14168 180-250, limits assumed, looked up): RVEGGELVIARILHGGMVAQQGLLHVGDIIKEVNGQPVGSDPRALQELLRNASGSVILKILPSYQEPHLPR
# T9: NHERF3_1, Q5T2W1
# T9 sequence (Q5T2W1 4-100, limits assumed, looked up): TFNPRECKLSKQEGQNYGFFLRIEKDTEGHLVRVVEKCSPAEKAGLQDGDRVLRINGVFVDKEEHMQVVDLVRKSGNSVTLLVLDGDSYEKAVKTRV
# T10: NHERF3_3, Q5T2W1
# T10 sequence (Q5T2W1 238-333, limits assumed, looked up): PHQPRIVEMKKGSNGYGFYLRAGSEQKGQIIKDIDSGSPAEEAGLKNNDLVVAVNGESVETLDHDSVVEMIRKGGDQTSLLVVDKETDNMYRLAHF
# T11: RHPN1, Q8TCX5
# T11 sequence (Q8TCX5 508-602, limits assumed, looked up): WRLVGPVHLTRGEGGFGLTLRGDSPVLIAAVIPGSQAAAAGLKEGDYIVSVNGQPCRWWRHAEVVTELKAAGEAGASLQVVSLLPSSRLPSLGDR
# T12: SYNJ2BP, P57105
# T12 sequence (P57105 8-110, limits assumed, looked up): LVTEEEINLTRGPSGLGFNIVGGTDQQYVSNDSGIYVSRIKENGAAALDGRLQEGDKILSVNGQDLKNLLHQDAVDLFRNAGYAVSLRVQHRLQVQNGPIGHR
# Target: T1, APBA1_1, Q02410
# Assay: holdup assay
# Set-up: key: below the threshold = too weak to quantify, mostly under pKd 3.1 to 4
# Details: plain residues with an end cap or a label only (N-terminal biotin on a linker: ado-ado)
row,pKd,Binder
1,below the threshold,"PSVYSRSQYV [CLDN8, P56748]"
2,below the threshold,"QLGSPTADLA [SIPA1, Q96FS4]"

# Target: T2, APBA1_2, Q02410
# Assay: holdup assay
# Set-up: key: below the threshold = too weak to quantify, mostly under pKd 3.1 to 4
# Details: plain residues with an end cap or a label only (N-terminal biotin on a linker: ado-ado)
row,pKd,Binder
1,3.92,"PSVYSRSQYV [CLDN8, P56748]"
2,below the threshold,"QLGSPTADLA [SIPA1, Q96FS4]"

# Target: T3, APBA2_1, Q99767
# Assay: holdup assay
# Set-up: key: below the threshold = too weak to quantify, mostly under pKd 3.1 to 4
# Details: plain residues with an end cap or a label only (N-terminal biotin on a linker: ado-ado)
row,pKd,Binder
1,below the threshold,"PSVYSRSQYV [CLDN8, P56748]"
2,below the threshold,"QLGSPTADLA [SIPA1, Q96FS4]"

# Target: DLG2_3, Q15700
# Assay: holdup assay
# Set-up: key: below the threshold = too weak to quantify, mostly under pKd 3.1 to 4
# Details: plain residues with an end cap or a label only (N-terminal biotin on a linker: ado-ado)
row,pKd,Binder
1,below the threshold,"PSVYSRSQYV [CLDN8, P56748]"
2,3.57,"QLGSPTADLA [SIPA1, Q96FS4]"

# Target: T4, DLG3_2, Q92796
# Assay: holdup assay
# Set-up: key: below the threshold = too weak to quantify, mostly under pKd 3.1 to 4
# Details: plain residues with an end cap or a label only (N-terminal biotin on a linker: ado-ado)
row,pKd,Binder
1,3.74,"PSVYSRSQYV [CLDN8, P56748]"
2,4.06,"QLGSPTADLA [SIPA1, Q96FS4]"

# Target: DLG4_1, P78352
# Sequence (P78352 62-152): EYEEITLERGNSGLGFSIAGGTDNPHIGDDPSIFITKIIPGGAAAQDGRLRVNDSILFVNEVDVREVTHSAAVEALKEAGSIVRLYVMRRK
# Assay: holdup assay
# Set-up: key: below the threshold = too weak to quantify, mostly under pKd 3.1 to 4
# Details: plain residues with an end cap or a label only (N-terminal biotin on a linker: ado-ado)
row,pKd,Binder
1,below the threshold,"PSVYSRSQYV [CLDN8, P56748]"
2,below the threshold,"QLGSPTADLA [SIPA1, Q96FS4]"

# Target: DLG4_2, P78352
# Sequence (P78352 155-259): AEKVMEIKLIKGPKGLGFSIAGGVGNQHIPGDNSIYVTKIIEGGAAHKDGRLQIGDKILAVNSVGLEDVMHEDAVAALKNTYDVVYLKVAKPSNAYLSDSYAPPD
# Assay: holdup assay
# Set-up: key: below the threshold = too weak to quantify, mostly under pKd 3.1 to 4
# Details: plain residues with an end cap or a label only (N-terminal biotin on a linker: ado-ado)
row,pKd,Binder
1,3.79,"PSVYSRSQYV [CLDN8, P56748]"
2,3.54,"QLGSPTADLA [SIPA1, Q96FS4]"

# Target: FRMPD3, Q5JV73
# Sequence (Q5JV73 12-100): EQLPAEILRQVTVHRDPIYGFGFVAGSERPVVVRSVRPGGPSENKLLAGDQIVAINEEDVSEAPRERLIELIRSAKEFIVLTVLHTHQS
# Assay: holdup assay
# Set-up: key: below the threshold = too weak to quantify, mostly under pKd 3.1 to 4
# Details: plain residues with an end cap or a label only (N-terminal biotin on a linker: ado-ado)
row,pKd,Binder
1,below the threshold,"PSVYSRSQYV [CLDN8, P56748]"
2,below the threshold,"QLGSPTADLA [SIPA1, Q96FS4]"

# Target: GRID2IP_2, A4D2P6
# Sequence (A4D2P6 272-370): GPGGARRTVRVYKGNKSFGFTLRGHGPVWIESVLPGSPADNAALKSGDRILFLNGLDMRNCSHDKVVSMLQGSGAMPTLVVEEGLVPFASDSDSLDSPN
# Assay: holdup assay
# Set-up: key: below the threshold = too weak to quantify, mostly under pKd 3.1 to 4
# Details: plain residues with an end cap or a label only (N-terminal biotin on a linker: ado-ado)
row,pKd,Binder
1,3.56,"PSVYSRSQYV [CLDN8, P56748]"
2,below the threshold,"QLGSPTADLA [SIPA1, Q96FS4]"

# Target: T5, GRIP1_3, Q9Y3R0
# Assay: holdup assay
# Set-up: key: below the threshold = too weak to quantify, mostly under pKd 3.1 to 4
# Details: plain residues with an end cap or a label only (N-terminal biotin on a linker: ado-ado)
row,pKd,Binder
1,below the threshold,"PSVYSRSQYV [CLDN8, P56748]"
2,below the threshold,"QLGSPTADLA [SIPA1, Q96FS4]"

# Target: T6, GRIP1_5, Q9Y3R0
# Assay: holdup assay
# Set-up: key: below the threshold = too weak to quantify, mostly under pKd 3.1 to 4
# Details: plain residues with an end cap or a label only (N-terminal biotin on a linker: ado-ado)
row,pKd,Binder
1,below the threshold,"PSVYSRSQYV [CLDN8, P56748]"
2,below the threshold,"QLGSPTADLA [SIPA1, Q96FS4]"

# Target: GRIP2_4, Q9C0E4
# Sequence (Q9C0E4 446-548): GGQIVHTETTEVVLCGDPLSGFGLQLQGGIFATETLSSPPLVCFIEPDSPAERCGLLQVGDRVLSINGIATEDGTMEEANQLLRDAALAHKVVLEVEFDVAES
# Assay: holdup assay
# Set-up: key: below the threshold = too weak to quantify, mostly under pKd 3.1 to 4
# Details: plain residues with an end cap or a label only (N-terminal biotin on a linker: ado-ado)
row,pKd,Binder
1,below the threshold,"PSVYSRSQYV [CLDN8, P56748]"
2,below the threshold,"QLGSPTADLA [SIPA1, Q96FS4]"

# Target: GRIP2_5, Q9C0E4
# Sequence (Q9C0E4 544-642): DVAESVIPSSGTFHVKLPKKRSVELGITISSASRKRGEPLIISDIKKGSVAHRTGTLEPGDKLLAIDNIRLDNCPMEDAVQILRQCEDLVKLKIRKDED
# Assay: holdup assay
# Set-up: key: below the threshold = too weak to quantify, mostly under pKd 3.1 to 4
# Details: plain residues with an end cap or a label only (N-terminal biotin on a linker: ado-ado)
row,pKd,Binder
1,below the threshold,"PSVYSRSQYV [CLDN8, P56748]"
2,below the threshold,"QLGSPTADLA [SIPA1, Q96FS4]"

# Target: HTRA1, Q92743
# Sequence (Q92743 360-477): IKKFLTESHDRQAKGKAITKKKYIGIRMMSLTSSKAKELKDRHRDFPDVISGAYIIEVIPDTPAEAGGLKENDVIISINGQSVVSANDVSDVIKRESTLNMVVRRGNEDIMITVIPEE
# Assay: holdup assay
# Set-up: key: below the threshold = too weak to quantify, mostly under pKd 3.1 to 4
# Details: plain residues with an end cap or a label only (N-terminal biotin on a linker: ado-ado)
row,pKd,Binder
1,5.03,"PSVYSRSQYV [CLDN8, P56748]"
2,below the threshold,"QLGSPTADLA [SIPA1, Q96FS4]"

# Target: IL16_3, Q14005
# Sequence (Q14005 1107-1207): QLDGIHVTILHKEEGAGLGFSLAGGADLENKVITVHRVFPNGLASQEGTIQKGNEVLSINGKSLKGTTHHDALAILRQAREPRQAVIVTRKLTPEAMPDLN
# Assay: holdup assay
# Set-up: key: below the threshold = too weak to quantify, mostly under pKd 3.1 to 4
# Details: plain residues with an end cap or a label only (N-terminal biotin on a linker: ado-ado)
row,pKd,Binder
1,below the threshold,"PSVYSRSQYV [CLDN8, P56748]"
2,below the threshold,"QLGSPTADLA [SIPA1, Q96FS4]"

# Target: Inadl_8, Q8NI35
# Sequence (Q8NI35 1425-1530): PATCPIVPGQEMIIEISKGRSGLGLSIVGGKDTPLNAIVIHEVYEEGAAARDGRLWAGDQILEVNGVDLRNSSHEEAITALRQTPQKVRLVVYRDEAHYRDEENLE
# Assay: holdup assay
# Set-up: key: below the threshold = too weak to quantify, mostly under pKd 3.1 to 4
# Details: plain residues with an end cap or a label only (N-terminal biotin on a linker: ado-ado)
row,pKd,Binder
1,3.84,"PSVYSRSQYV [CLDN8, P56748]"
2,below the threshold,"QLGSPTADLA [SIPA1, Q96FS4]"

# Target: T7, LNX2_2, Q8N448
# Assay: holdup assay
# Set-up: key: below the threshold = too weak to quantify, mostly under pKd 3.1 to 4
# Details: plain residues with an end cap or a label only (N-terminal biotin on a linker: ado-ado)
row,pKd,Binder
1,4.66,"PSVYSRSQYV [CLDN8, P56748]"
2,below the threshold,"QLGSPTADLA [SIPA1, Q96FS4]"

# Target: MAGI1_1, Q96QZ7
# Sequence (Q96QZ7 1-106): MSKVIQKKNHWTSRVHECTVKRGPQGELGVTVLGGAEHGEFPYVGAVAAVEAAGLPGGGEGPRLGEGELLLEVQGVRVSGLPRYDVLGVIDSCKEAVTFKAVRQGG
# Assay: holdup assay
# Set-up: key: below the threshold = too weak to quantify, mostly under pKd 3.1 to 4
# Details: plain residues with an end cap or a label only (N-terminal biotin on a linker: ado-ado)
row,pKd,Binder
1,below the threshold,"PSVYSRSQYV [CLDN8, P56748]"
2,below the threshold,"QLGSPTADLA [SIPA1, Q96FS4]"

# Target: T8, MPP2, Q14168
# Assay: holdup assay
# Set-up: key: below the threshold = too weak to quantify, mostly under pKd 3.1 to 4
# Details: plain residues with an end cap or a label only (N-terminal biotin on a linker: ado-ado)
row,pKd,Binder
1,below the threshold,"PSVYSRSQYV [CLDN8, P56748]"
2,below the threshold,"QLGSPTADLA [SIPA1, Q96FS4]"

# Target: T9, NHERF3_1, Q5T2W1
# Assay: holdup assay
# Set-up: key: below the threshold = too weak to quantify, mostly under pKd 3.1 to 4
# Details: plain residues with an end cap or a label only (N-terminal biotin on a linker: ado-ado)
row,pKd,Binder
1,5.34,"PSVYSRSQYV [CLDN8, P56748]"
2,below the threshold,"QLGSPTADLA [SIPA1, Q96FS4]"

# Target: T10, NHERF3_3, Q5T2W1
# Assay: holdup assay
# Set-up: key: below the threshold = too weak to quantify, mostly under pKd 3.1 to 4
# Details: plain residues with an end cap or a label only (N-terminal biotin on a linker: ado-ado)
row,pKd,Binder
1,below the threshold,"PSVYSRSQYV [CLDN8, P56748]"
2,below the threshold,"QLGSPTADLA [SIPA1, Q96FS4]"

# Target: NOS1, P29475
# Sequence (P29475 9-101): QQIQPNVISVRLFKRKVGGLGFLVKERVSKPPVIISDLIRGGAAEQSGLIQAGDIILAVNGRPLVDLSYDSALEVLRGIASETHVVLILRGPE
# Assay: holdup assay
# Set-up: key: below the threshold = too weak to quantify, mostly under pKd 3.1 to 4
# Details: plain residues with an end cap or a label only (N-terminal biotin on a linker: ado-ado)
row,pKd,Binder
1,3.99,"PSVYSRSQYV [CLDN8, P56748]"
2,below the threshold,"QLGSPTADLA [SIPA1, Q96FS4]"

# Target: PDLIM1, O00151
# Sequence (O00151 1-87): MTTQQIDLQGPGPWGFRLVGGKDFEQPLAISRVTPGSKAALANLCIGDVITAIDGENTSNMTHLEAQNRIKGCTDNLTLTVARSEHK
# Assay: holdup assay
# Set-up: key: below the threshold = too weak to quantify, mostly under pKd 3.1 to 4
# Details: plain residues with an end cap or a label only (N-terminal biotin on a linker: ado-ado)
row,pKd,Binder
1,below the threshold,"PSVYSRSQYV [CLDN8, P56748]"
2,below the threshold,"QLGSPTADLA [SIPA1, Q96FS4]"

# Target: PICK1, Q9NRD5
# Sequence (Q9NRD5 17-115): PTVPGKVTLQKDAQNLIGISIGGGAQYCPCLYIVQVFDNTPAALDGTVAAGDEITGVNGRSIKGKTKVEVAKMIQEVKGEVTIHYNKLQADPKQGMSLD
# Assay: holdup assay
# Set-up: key: below the threshold = too weak to quantify, mostly under pKd 3.1 to 4
# Details: plain residues with an end cap or a label only (N-terminal biotin on a linker: ado-ado)
row,pKd,Binder
1,below the threshold,"PSVYSRSQYV [CLDN8, P56748]"
2,below the threshold,"QLGSPTADLA [SIPA1, Q96FS4]"

# Target: T11, RHPN1, Q8TCX5
# Assay: holdup assay
# Set-up: key: below the threshold = too weak to quantify, mostly under pKd 3.1 to 4
# Details: plain residues with an end cap or a label only (N-terminal biotin on a linker: ado-ado)
row,pKd,Binder
1,below the threshold,"PSVYSRSQYV [CLDN8, P56748]"
2,below the threshold,"QLGSPTADLA [SIPA1, Q96FS4]"

# Target: T12, SYNJ2BP, P57105
# Assay: holdup assay
# Set-up: key: below the threshold = too weak to quantify, mostly under pKd 3.1 to 4
# Details: plain residues with an end cap or a label only (N-terminal biotin on a linker: ado-ado)
row,pKd,Binder
1,below the threshold,"PSVYSRSQYV [CLDN8, P56748]"
2,below the threshold,"QLGSPTADLA [SIPA1, Q96FS4]"
